Consider two molecules from patent publication US20080226632 (published 2008).

The target in one experiment is EGF (human, UniProt P01133).
The next experiment deals with T1, HB-EGF (human, UniProt Q99075).
T1 chain: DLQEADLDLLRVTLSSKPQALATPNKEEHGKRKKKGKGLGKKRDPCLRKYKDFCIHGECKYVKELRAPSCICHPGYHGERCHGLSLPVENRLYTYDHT

Sequence of EGF (P01133 971-1023): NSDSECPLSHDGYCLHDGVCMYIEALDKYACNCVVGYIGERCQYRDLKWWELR

B1: PAR34 (antibody, V domains shown)
VH: EIQLQQSGPELVKPGASVKVSCKASGYAFTNYNMYWVKQSHGKSLEWIGYIDPYYGDPGYSQKFKGKATLTVDKSSSTAYMHLNSLTSEDSAVYYCARRGNFPYYFDYWGQGTTLTVSS
VL: DIKMTQSPSSMYASLGERVTITCKASQDINSYLSWFQQKPGKSPKTLIYRANRLVDGVPSRFSGSGSGQDYSLTISSLEYEDMGIYYCLQYDEFPYTFGGGTKLEIK
Consider B1, for which the binding result with EGF and in the experiment with HB-EGF was “no binding” each time.

B2: PAR80 (antibody, V domains shown)
VH: EVQLQQSGAELVRSGASVKLSCTASGFNIKDYYIHWVKQRPEQGLEWIGCIDPENGDTEYAPNFQGRATMTADTSSNTAYLQLSSLTSEDTAVYYCYGGTITFAYWGQGTLVTVSA
VL: QAVVTQESALTTSPGETVTLTCRSSTGAVTTSNSANWVQEKPDHLFTGLIGGTINRVPGVPARFSGSLIGDKAALTITGAQTEDEAIYFCALWYSNHWVFGGGTKLTVLG
As for B2, the binding result with EGF and with HB-EGF was “no binding” in each case.
